These results are taken from US20240400627A1 (YALE UNIVERSITY, published 2024).

This test has as its target T1, Nicotinamide Nucleotide Transhydrogenase (NNT), endogenous, mouse kidney (mouse, UniProt Q61941 44-1086).
T1 construct: Inner mitochondrial membrane protein; absent in C57BL/6J mice (deletion of exons 7-11 of Nnt)
T1 sequence (looked up): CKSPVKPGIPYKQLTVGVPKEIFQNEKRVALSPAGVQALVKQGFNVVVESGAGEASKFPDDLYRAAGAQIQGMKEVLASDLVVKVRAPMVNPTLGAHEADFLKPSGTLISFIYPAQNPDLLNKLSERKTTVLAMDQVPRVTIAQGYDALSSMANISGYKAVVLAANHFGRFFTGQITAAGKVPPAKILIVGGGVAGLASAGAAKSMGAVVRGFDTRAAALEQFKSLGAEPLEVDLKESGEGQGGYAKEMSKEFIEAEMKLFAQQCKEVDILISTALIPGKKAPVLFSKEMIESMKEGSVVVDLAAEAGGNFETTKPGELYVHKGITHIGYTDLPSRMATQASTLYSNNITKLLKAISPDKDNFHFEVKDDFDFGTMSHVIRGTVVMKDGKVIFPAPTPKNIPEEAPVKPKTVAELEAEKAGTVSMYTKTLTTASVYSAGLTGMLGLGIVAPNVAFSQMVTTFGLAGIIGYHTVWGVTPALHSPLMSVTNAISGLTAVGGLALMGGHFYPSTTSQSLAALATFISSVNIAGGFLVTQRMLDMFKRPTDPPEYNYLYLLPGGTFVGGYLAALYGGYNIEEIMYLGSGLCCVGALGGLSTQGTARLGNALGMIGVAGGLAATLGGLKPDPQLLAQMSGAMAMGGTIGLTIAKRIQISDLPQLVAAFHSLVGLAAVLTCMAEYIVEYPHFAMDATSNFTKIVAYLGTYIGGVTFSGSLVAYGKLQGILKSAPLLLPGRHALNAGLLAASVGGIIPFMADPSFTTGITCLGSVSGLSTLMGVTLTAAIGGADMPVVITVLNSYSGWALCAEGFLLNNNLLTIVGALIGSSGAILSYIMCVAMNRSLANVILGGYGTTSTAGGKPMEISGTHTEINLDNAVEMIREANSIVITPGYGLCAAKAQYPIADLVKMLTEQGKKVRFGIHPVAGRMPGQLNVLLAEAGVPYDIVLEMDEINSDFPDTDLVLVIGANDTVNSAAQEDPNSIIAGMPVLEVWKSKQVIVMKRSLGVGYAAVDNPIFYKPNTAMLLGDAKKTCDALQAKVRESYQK
In words: anti-HA immunoprecipitation from mouse kidney lysates, immunoblot. The protocol:
Homogenates were then sonicated for 30 seconds (2×15 second bursts at 40% power) and incubated for 45 minutes on ice to complete protein solubilization. Lysates were centrifuged at 8000 rpm for 15 minutes. Protein concentrations were measured with the Protein Assay Dye Reagent Concentrate (catalog #5000006, Bio-Rad). Anti-HA magnetic beads (catalog #88837, ThermoFischer Scientific) were equilibrated in lysis buffer (50 μL beads per reaction in 500 μl of lysis buffer) for 10 minutes at room temperature on a rocking shaker, and then incubated with a total of 4 mg of tissue lysate per sample, overnight, at 4° C. Following four 5-minute washes with 1 ml lysis buffer, the dynabeads were magnetically recovered and precipitated proteins were eluted in 60 μl of 2× Laemmli sample buffer (catalog #1610747, Bio-Rad) with 300 mM Dithiothreitol (DTT). One-third of the eluted proteins (20 μl) was loaded per sample per gel for immunoblotting.
The alleles required to produce the Pkd1-KO+/−CTT mice were moved to this NNT-deficient background (J-Pkd1-KO and J-Pkd1-KO+CTT). […] No NNT was detected in glomeruli or Bowman's capsule. This pattern reproduced the one reported in the Human Protein Atlas (Uhlen, et al., Science Vol. 347, 1260419 (2015)). […] NNT was only detected in immunoprecipitates from “N” cystic mice that express CTT and not in those derived from N-Pkd1-KO mice that express NNT but not CTT.
Background: Immunoblotting shows a protein as a band on a membrane.

B1: 2HA-PC1-CTT (final 200 amino acids of human polycystin-1, aa 4102-4302, with an N-terminal 2xHA epitope tag) (other, not shown: small tags and cut ends)
chain: VILRWRYHALRGELYRPAWEPQDYEMVELFLRRLRLWMGLSKVKEFRHKVRFEGMEPLPSRSSRGSKVSPDVPPPSAGSDASHPSTSSSQLDGLSVSLGRLGTRCEPEPSRLQAVFEALLTQFDRLNQATEDVYQLEQQLHSLQGRRSSRAPAGSSRGPSPGLRPALPSRLARASRGVDLATGPSRTPLRAKNKVHPSST
notes: Expressed from a BAC transgene in renal epithelial cells of Pkd1-KO+CTT mice; detected as a 37-kDa HA-tagged band; also called 2HA-PKD1-CTT; polycystin-1 C-terminal tail
Take B1: the binding result is listed as “binds”.
